Test [1] addresses CHIKV virus-like particles (strain 37997) (chikungunya virus).
In test [2] the target is CHIKV E2-6K-E1 envelope proteins (strain S27) with E2 S182A (Chikungunya virus strain S27) (UniProt Q8JUX5). Briefly: flow cytometry, transfected 293T cells.
In test [3] the target is CHIKV E2-6K-E1 envelope proteins (strain S27) with E2 V216A (Chikungunya virus strain S27) (UniProt Q8JUX5). Nature of the test: flow cytometry, transfected 293T cells. (In general: Flow cytometry measures light scatter and fluorescence of single cells or particles in a stream.)
Test [4] concerns the target CHIKV E2-6K-E1 envelope proteins (strain S27) with E2 S185A (Chikungunya virus strain S27) (UniProt Q8JUX5). Nature of the test: flow cytometry, transfected 293T cells.
The target in test [5] is CHIKV E2-6K-E1 envelope proteins (strain S27) with E2 C203A (Chikungunya virus strain S27) (UniProt Q8JUX5). Briefly: flow cytometry, transfected 293T cells.
Test [6] concerns the target CHIKV E2-6K-E1 envelope proteins (strain S27) with E2 T212A (Chikungunya virus strain S27) (UniProt Q8JUX5). Nature of the test: flow cytometry, transfected 293T cells.
The target in test [7] is CHIKV E2-6K-E1 envelope proteins (strain S27) with E2 L180A (Chikungunya virus strain S27) (UniProt Q8JUX5). Nature of the test: flow cytometry, transfected 293T cells.
In test [8] the target is CHIKV E2-6K-E1 envelope proteins (strain S27) with E2 K215A (Chikungunya virus strain S27) (UniProt Q8JUX5). Briefly: flow cytometry, transfected 293T cells.
Test [9] concerns the target CHIKV E2-6K-E1 envelope proteins (strain S27) with E2 V192A (Chikungunya virus strain S27) (UniProt Q8JUX5). Nature of the test: flow cytometry, transfected 293T cells.
Test [10] deals with CHIKV E2-6K-E1 envelope proteins (strain S27) with E2 T191A (Chikungunya virus strain S27) (UniProt Q8JUX5). Briefly: flow cytometry, transfected 293T cells.
Test [11] addresses CHIKV E2-6K-E1 envelope proteins (strain S27) with E2 L181A (Chikungunya virus strain S27) (UniProt Q8JUX5). Nature of the test: flow cytometry, transfected 293T cells.
For test [12], the target named is CHIKV E2-6K-E1 envelope proteins (strain S27) with E2 C201A (Chikungunya virus strain S27) (UniProt Q8JUX5). Nature of the test: flow cytometry, transfected 293T cells.
Test [13] concerns the target CHIKV E2-6K-E1 envelope proteins (strain S27) with E2 N219A (Chikungunya virus strain S27) (UniProt Q8JUX5). Nature of the test: flow cytometry, transfected 293T cells.
The target of test [14] is CHIKV E2-6K-E1 envelope proteins (strain S27) with E2 S194A (Chikungunya virus strain S27) (UniProt Q8JUX5). Briefly: flow cytometry, transfected 293T cells.
Test [15] has as its target CHIKV E2-6K-E1 envelope proteins (strain S27) with E2 G186A (Chikungunya virus strain S27) (UniProt Q8JUX5). Briefly: flow cytometry, transfected 293T cells.
Test [16] addresses CHIKV E2-6K-E1 envelope proteins (strain S27) with E2 V197A (Chikungunya virus strain S27) (UniProt Q8JUX5). Nature of the test: flow cytometry, transfected 293T cells.
In test [17] the target is CHIKV E2-6K-E1 envelope proteins (strain S27) with E2 L210A (Chikungunya virus strain S27) (UniProt Q8JUX5). Briefly: flow cytometry, transfected 293T cells.
For test [18], the target named is CHIKV E2-6K-E1 envelope proteins (strain S27) with E2 I190A (Chikungunya virus strain S27) (UniProt Q8JUX5). Briefly: flow cytometry, transfected 293T cells.
Test [19] deals with CHIKV E2-6K-E1 envelope proteins (strain S27) with E2 G204A (Chikungunya virus strain S27) (UniProt Q8JUX5). Nature of the test: flow cytometry, transfected 293T cells.
In test [20] the target is CHIKV E2-6K-E1 envelope proteins (strain S27) with E2 I217A (Chikungunya virus strain S27) (UniProt Q8JUX5). Briefly: flow cytometry, transfected 293T cells.
Test [21] concerns the target CHIKV E2-6K-E1 envelope proteins (strain S27) with E2 N193A (Chikungunya virus strain S27) (UniProt Q8JUX5). Briefly: flow cytometry, transfected 293T cells.
Test [22] has as its target CHIKV E2-6K-E1 envelope proteins (strain S27) with E2 Q183A (Chikungunya virus strain S27) (UniProt Q8JUX5). Briefly: flow cytometry, transfected 293T cells.
Test [23] addresses CHIKV E2-6K-E1 envelope proteins (strain S27) with E2 R198A (Chikungunya virus strain S27) (UniProt Q8JUX5). Briefly: flow cytometry, transfected 293T cells.
The target of test [24] is CHIKV E2-6K-E1 envelope proteins (strain S27) with E2 Y199A (Chikungunya virus strain S27) (UniProt Q8JUX5). Nature of the test: flow cytometry, transfected 293T cells.
Test [25] deals with CHIKV E2-6K-E1 envelope proteins (strain S27) with E2 K189A (Chikungunya virus strain S27) (UniProt Q8JUX5). Briefly: flow cytometry, transfected 293T cells.
In test [26] the target is CHIKV E2-6K-E1 envelope proteins (strain S27) with E2 N202A (Chikungunya virus strain S27) (UniProt Q8JUX5). Briefly: flow cytometry, transfected 293T cells.
Test [27] has as its target CHIKV E2-6K-E1 envelope proteins (strain S27) with E2 I211A (Chikungunya virus strain S27) (UniProt Q8JUX5). Nature of the test: flow cytometry, transfected 293T cells.
Test [28] has as its target CHIKV E2-6K-E1 envelope proteins (strain S27) with E2 G209A (Chikungunya virus strain S27) (UniProt Q8JUX5). Briefly: flow cytometry, transfected 293T cells.
The target of test [29] is CHIKV E2-6K-E1 envelope proteins (strain S27) with E2 Q184A (Chikungunya virus strain S27) (UniProt Q8JUX5). Briefly: flow cytometry, transfected 293T cells.
Test [30] deals with CHIKV E2-6K-E1 envelope proteins (strain S27) with E2 Q195A (Chikungunya virus strain S27) (UniProt Q8JUX5). Briefly: flow cytometry, transfected 293T cells.
The target in test [31] is CHIKV E2-6K-E1 envelope proteins (strain S27) with E2 G205A (Chikungunya virus strain S27) (UniProt Q8JUX5). Briefly: flow cytometry, transfected 293T cells.
Test [32] has as its target CHIKV E2-6K-E1 envelope proteins (strain S27) with E2 N187A (Chikungunya virus strain S27) (UniProt Q8JUX5). Nature of the test: flow cytometry, transfected 293T cells.
For test [33], the target named is CHIKV E2-6K-E1 envelope proteins (strain S27) with E2 N218A (Chikungunya virus strain S27) (UniProt Q8JUX5). Briefly: flow cytometry, transfected 293T cells.
The target in test [34] is CHIKV E2-6K-E1 envelope proteins (strain S27) with E2 T196A (Chikungunya virus strain S27) (UniProt Q8JUX5). Briefly: flow cytometry, transfected 293T cells.
Test [35] addresses CHIKV E2-6K-E1 envelope proteins (strain S27) with E2 C220A (Chikungunya virus strain S27) (UniProt Q8JUX5). Briefly: flow cytometry, transfected 293T cells.
Test [36] concerns the target CHIKV E2-6K-E1 envelope proteins (strain S27) with E2 K200A (Chikungunya virus strain S27) (UniProt Q8JUX5). Nature of the test: flow cytometry, transfected 293T cells.
For test [37], the target named is CHIKV E2-6K-E1 envelope proteins (strain S27) with E2 S206A (Chikungunya virus strain S27) (UniProt Q8JUX5). Briefly: flow cytometry, transfected 293T cells.
Test [38] addresses CHIKV E2-6K-E1 envelope proteins (strain S27) with E2 V188A (Chikungunya virus strain S27) (UniProt Q8JUX5). Nature of the test: flow cytometry, transfected 293T cells.
Test [39] concerns the target CHIKV virus-like particles (strain 37997) (chikungunya virus). Briefly: SPR, […], kinetic fit ([…]. In general terms: In SPR one partner is held on a chip, and binding of the other changes the refractive index at the surface.
Test [40] shares this target. The source holds these as a separate data set.
Test [41] deals with Sindbis virus strain TR339 (virions; also structural proteins on infected Vero cells) (Sindbis virus).
For test [42], the target named is CHIKV virus-like particles (strain 37997) (chikungunya virus). The source holds these as a separate data set.
Test [43] has the same target. The source holds these as a separate data set.
Test [44] has the same target. The source holds these as a separate data set.

Values joined by “and” are separate entries in the source; they are usually repeats but may differ in a detail not shown here. Identical values can stand only once. Like-named read-outs stand apart in the source and are kept apart here.

Broadly, the EC50 (read off the curve) is the midpoint of the concentration-response curve. As for “CHK-265 (murine anti-CHIKV mAb) (antibody)”, in test [1], the EC50 (read off the curve) is 0.003 µg/mL.

For IM-CKV063 (antibody), the Binding Reactivity (% WT) in [2] came out at 121 % WT; in [3], 97.7 % WT; in [4], 108 % WT; in [5] it was 45.1 % WT; in test [6], 108 % WT; in [7], 114 % WT. Also, the Binding Reactivity (% WT) in test [8] worked out at 102 % WT; in test [9], 98.3 % WT; in [10], 94.8 % WT; in [11], 87.9 % WT; in test [12], 47.7 % WT; in test [13] it was 98 % WT. Moreover, the Binding Reactivity (% WT) stood at 94 % WT in test [14]; 95.4 % WT in test [15]; 67.4 % WT in test [16]; 86.3 % WT in test [17]; 56.1 % WT in test [18]; 91.5 % WT in [19]. Also, the Binding Reactivity (% WT) is 69.7 % WT in test [20]; 85.7 % WT in [21]; 101 % WT in test [22]; 98.2 % WT in [23]; 79.8 % WT in [24]; 109 % WT in [25]. Moreover, the Binding Reactivity (% WT) came out at 92.8 % WT in [26]; 77.2 % WT in test [27]; 99.8 % WT in test [28]; 121 % WT in test [29]; 78.6 % WT in [30]; 62 % WT in test [31]. In addition, the Binding Reactivity (% WT) is 114 % WT in test [32]; 97.6 % WT in test [33]; 83 % WT in test [34]; 95.2 % WT in test [35]; 119 % WT in test [36]; 119 % WT in test [37]. Moreover, the Binding Reactivity (% WT) in [38] amounted to 114 % WT.

Take MAb C9 (antibody): the Binding Reactivity (% WT) in test [2] was 132 % WT; in test [3], 112 % WT; in [4], 105 % WT; in test [5] it was 58.3 % WT; in test [6], 125 % WT; in test [7], 126 % WT. Also, the Binding Reactivity (% WT) in test [8] was found to be 143 % WT; in test [9] it was 114 % WT; in test [10], 118 % WT; in test [11], 110 % WT; in test [12] it was 65 % WT; in [13], 117 % WT. Further, the Binding Reactivity (% WT) in test [14] is 119 % WT; in [15], 101 % WT; in test [16], 83.8 % WT; in test [17], 105 % WT; in [18], 81.8 % WT; in test [19], 106 % WT. The Binding Reactivity (% WT) in [20] came out at 110 % WT; in test [21], 113 % WT; in [22], 176 % WT; in test [23] it was 122 % WT; in [24] it was 122 % WT; in test [25], 129 % WT. Moreover, the Binding Reactivity (% WT) came out at 96.2 % WT in test [26]; 126 % WT in test [27]; 108 % WT in [28]; 135 % WT in test [29]; 129 % WT in test [30]; 111 % WT in [31]. Further, the Binding Reactivity (% WT) in test [32] was 123 % WT; in test [33], 72 % WT; in test [34], 99.8 % WT; in [35], 104 % WT; in test [36], 144 % WT; in test [37], 96 % WT. In [38], the Binding Reactivity (% WT) was found to be 141 % WT.

As a reminder, the Kd is the equilibrium constant for the complex coming apart. Read a low Kd as higher affinity. For the substance “cleaved human Mxra8 (human monomeric MXRA8) (from UniProt Q9BRK3 20-341) (receptor)”, the Kd was 0.0983 µM and 0.209 µM in test [39]; 0.06 µM and 0.3 µM in test [40].

As for duck MXRA8-Fc (Fc fusion), in test [41], the neutralisation of SINV-GFP infection; IC50 (read off the curve) worked out at 1 µg/mL.

Regarding “monovalent Du-D1-Mo-D2 MXRA8 (cleaved from the Fc fusion with GlySERIAS) (from UniProt Q9DBV4 23-65; Q9DBV4 195-293) (receptor)”, the Kd in [42] is 0.665 µM; in [43], 0.545 µM.

For the substance “monovalent mouse MXRA8 (cleaved from mouse MXRA8-Fc with GlySERIAS) (from UniProt Q9DBV4 20-340) (receptor)”, the values for the Kd in test [43] and in test [44] were 0.068 µM and 0.076 µM, respectively.

The values are drawn from patent publication US20240124553A1.
